Assay [1] deals with T1, human Y2 receptor (human, UniProt P49146 1-381).
T1 construct: whole, on cells; used as membrane fraction of hY2R/CHO cells; also called human NPY2R; hY2R
T1 sequence (looked up): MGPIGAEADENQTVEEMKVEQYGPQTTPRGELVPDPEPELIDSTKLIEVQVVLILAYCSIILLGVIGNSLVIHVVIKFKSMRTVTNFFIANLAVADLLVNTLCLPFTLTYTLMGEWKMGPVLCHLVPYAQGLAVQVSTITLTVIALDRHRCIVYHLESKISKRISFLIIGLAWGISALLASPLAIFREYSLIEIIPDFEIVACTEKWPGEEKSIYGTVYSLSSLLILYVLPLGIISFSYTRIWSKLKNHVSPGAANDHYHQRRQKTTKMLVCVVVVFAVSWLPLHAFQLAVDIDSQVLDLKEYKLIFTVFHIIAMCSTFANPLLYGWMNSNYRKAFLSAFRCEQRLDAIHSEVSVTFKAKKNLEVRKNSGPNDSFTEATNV
Put plainly: RBA: [125I]-PYY displacement, hY2R/CHO membranes. In a few lines: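 Bound radioligand was collected by filtration on PEI-treated GF/C filters, washed with Tris/MgCl₂/NaCl/CHAPS buffer pH 7.4, and counted by scintillation; IC₅₀ values were calculated.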

Assay [2] has as its target T1, human Y2 receptor. Briefly: cell-based or functional assay.

Non-standard residues stand in square brackets, D forms with d. No end group written: not given here. *: point of attachment. 4‑guanidinomethylbenzoyl = N=C(N)NCc1ccc(C(=O)*)cc1; 4Amb = NCc1ccc(C(=O)O)cc1

B1: 4-Guanidinomethylbenzoyl-[Ala26, Ile28,31]-PYY(25-36) (peptide)
peptide: {4‑guanidinomethylbenzoyl}-RAYINLITRQRY-NH2
SMILES: CC[C@H](C)[C@H](NC(=O)[C@H](Cc1ccc(O)cc1)NC(=O)[C@H](C)NC(=O)[C@H](CCCNC(=N)N)NC(=O)c1ccc(CNC(=N)N)cc1)C(=O)N[C@@H](CC(N)=O)C(=O)N[C@@H](CC(C)C)C(=O)N[C@H](C(=O)N[C@H](C(=O)N[C@@H](CCCNC(=N)N)C(=O)N[C@@H](CCC(N)=O)C(=O)N[C@@H](CCCNC(=N)N)C(=O)N[C@@H](Cc1ccc(O)cc1)C(N)=O)[C@@H](C)O)[C@@H](C)CC
notes: also called compound No. 4
Turning to B1, the “IC50 Ratio (vs PYY(3-36))” value in the assay with human Y2 receptor [1] came out at 2.4 ratio. Moreover, the “GBA EC50 Ratio (vs PYY(3-36)), [35S]GTPγS” value (“GBA EC50 Ratio” below) in the assay with human Y2 receptor [2] was found to be 1.1 ratio.

B2: 4-Aminomethylbenzoyl-[Ala26, Gln27, Ile28,31]-PYY(25-36) (peptide)
peptide: [4Amb]RAQINLITRQRY-NH2
modifications: N-terminus assumed
SMILES: CC[C@H](C)[C@H](NC(=O)[C@H](CCC(N)=O)NC(=O)[C@H](C)NC(=O)[C@H](CCCNC(=N)N)NC(=O)c1ccc(CN)cc1)C(=O)N[C@@H](CC(N)=O)C(=O)N[C@@H](CC(C)C)C(=O)N[C@H](C(=O)N[C@H](C(=O)N[C@@H](CCCNC(=N)N)C(=O)N[C@@H](CCC(N)=O)C(=O)N[C@@H](CCCNC(=N)N)C(=O)N[C@@H](Cc1ccc(O)cc1)C(N)=O)[C@@H](C)O)[C@@H](C)CC
notes: also called compound No. 30
B2: in the assay with human Y2 receptor [1], the “IC50 Ratio (vs PYY(3-36))” value was determined as 25 ratio. Moreover, in the assay with human Y2 receptor [2], the “GBA EC50 Ratio” value is 14 ratio.

B3: 4-Aminomethylbenzoyl-[Ala26,28, Ile31]-PYY(25-36) (peptide)
peptide: [4Amb]RAYANLITRQRY-NH2
modifications: N-terminus assumed
SMILES: CC[C@H](C)[C@H](NC(=O)[C@H](CC(C)C)NC(=O)[C@H](CC(N)=O)NC(=O)[C@H](C)NC(=O)[C@H](Cc1ccc(O)cc1)NC(=O)[C@H](C)NC(=O)[C@H](CCCNC(=N)N)NC(=O)c1ccc(CN)cc1)C(=O)N[C@H](C(=O)N[C@@H](CCCNC(=N)N)C(=O)N[C@@H](CCC(N)=O)C(=O)N[C@@H](CCCNC(=N)N)C(=O)N[C@@H](Cc1ccc(O)cc1)C(N)=O)[C@@H](C)O
notes: also called compound No. 31
Take B3: the “IC50 Ratio (vs PYY(3-36))” value with human Y2 receptor [1] is 42 ratio. The “GBA EC50 Ratio” value in the assay with human Y2 receptor [2] was found to be 29 ratio.

B4: 4-Aminomethylbenzoyl-[Ala26,31, Ile28]-PYY(25-36) (peptide)
peptide: [4Amb]RAYINLATRQRY-NH2
modifications: N-terminus assumed
SMILES: CC[C@H](C)[C@H](NC(=O)[C@H](Cc1ccc(O)cc1)NC(=O)[C@H](C)NC(=O)[C@H](CCCNC(=N)N)NC(=O)c1ccc(CN)cc1)C(=O)N[C@@H](CC(N)=O)C(=O)N[C@@H](CC(C)C)C(=O)N[C@@H](C)C(=O)N[C@H](C(=O)N[C@@H](CCCNC(=N)N)C(=O)N[C@@H](CCC(N)=O)C(=O)N[C@@H](CCCNC(=N)N)C(=O)N[C@@H](Cc1ccc(O)cc1)C(N)=O)[C@@H](C)O
notes: also called compound No. 33
Regarding B4, the “IC50 Ratio (vs PYY(3-36))” value with human Y2 receptor [1] was determined as 23 ratio. For the same molecule, the “GBA EC50 Ratio” value in the assay with human Y2 receptor [2] stood at 17 ratio.

B5: 4-Aminomethylbenzoyl-[Ala26, Arg27, Ile28,31]-PYY(25-36) (peptide)
peptide: [4Amb]RARINLITRQRY-NH2
modifications: N-terminus assumed
SMILES: CC[C@H](C)[C@H](NC(=O)[C@H](CCCNC(=N)N)NC(=O)[C@H](C)NC(=O)[C@H](CCCNC(=N)N)NC(=O)c1ccc(CN)cc1)C(=O)N[C@@H](CC(N)=O)C(=O)N[C@@H](CC(C)C)C(=O)N[C@H](C(=O)N[C@H](C(=O)N[C@@H](CCCNC(=N)N)C(=O)N[C@@H](CCC(N)=O)C(=O)N[C@@H](CCCNC(=N)N)C(=O)N[C@@H](Cc1ccc(O)cc1)C(N)=O)[C@@H](C)O)[C@@H](C)CC
notes: also called compound No. 29
Regarding B5, in the assay with human Y2 receptor [1], the “IC50 Ratio (vs PYY(3-36))” value stood at 6.8 ratio. For the same molecule, the “GBA EC50 Ratio” value with human Y2 receptor [2] was found to be 4.3 ratio.

B6: 4-Aminomethylbenzoyl-[Ala26,30, Ile28,31]-PYY(25-36) (peptide)
peptide: [4Amb]RAYINAITRQRY-NH2
modifications: N-terminus assumed
SMILES: CC[C@H](C)[C@H](NC(=O)[C@H](C)NC(=O)[C@H](CC(N)=O)NC(=O)[C@@H](NC(=O)[C@H](Cc1ccc(O)cc1)NC(=O)[C@H](C)NC(=O)[C@H](CCCNC(=N)N)NC(=O)c1ccc(CN)cc1)[C@@H](C)CC)C(=O)N[C@H](C(=O)N[C@@H](CCCNC(=N)N)C(=O)N[C@@H](CCC(N)=O)C(=O)N[C@@H](CCCNC(=N)N)C(=O)N[C@@H](Cc1ccc(O)cc1)C(N)=O)[C@@H](C)O
notes: also called compound No. 32
Take B6: in the assay with human Y2 receptor [1], the “IC50 Ratio (vs PYY(3-36))” value was found to be 9.1 ratio. Further, the “GBA EC50 Ratio” value with human Y2 receptor [2] is 7.4 ratio.

For the origin of these results see US20120172293A1 (Takeda / Millennium, published 2012).
